Source: the NTF2 design screens of Basanta et al. (2020)

test: protease stability score; higher = more stable; yeast display proteolysis, trypsin and chymotrypsin;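 further: relative to predicted unfolded state with 0 unfolded-like and 1 meaning tenfold more protease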

Sequence	protease stability score
DEEEEDIRRAVTRFIEVILTGDEHSLERLMDPHVKIDIGDKHLHGREAKDRLRDEMRRKFKNLRIHMRDWHLEIYDGVAHSTFDFELEINGKRTHLELRVDVRKVDGRWLIDSYEIKIR	1.15
SEEEEIYKRIADLFLQIFSTGDEDRLHRLADPDVKWEYGDKKNVGMKDVIHYFEHIWMHVERSDNTDVDLQGNKARVDMRSDIRIEINGRELRIKVSVLIIIVKFNGRWTVHSLRIE	1.27
DDDDRKNHEIAKWIWELIETGDEDILQHLADPDYRLVLDFDGVHIHRHGMTRIYHTLERVYREFGADHIHIRSITNINGVNIIDGEVQVNGKHYRLVLIFIVVNGRIKEIRVKKR	1.54
DELEKDARKLFEMIYRMLKTGDEDHFLRLADPDVRVHQGDKEIHGMDISKQIVEDLGIQKIEVHVHKVEIQGDKVDITGEVNWNGQNINLIVYTEKVNGKWRIHSVELH	1.61
TEEDEFWERYVQLLRELWITGDEETWKNLADPNTRLHINGVTAHGREEVEHVYKKILEDLGIDVRHIHRIDVQGDKMRIDSRNNIDGQIFRLHIENHFVNGRLQFIRMEVH	1.25
SEDEEAAKRLTDLLIHNWETGNEDELHRLIDPNMREDVNGKEFHGWSYMVHFLRRIDHVFSHITIHDIKSVGDYVYIDGTVDEIFHIGDSKIRINIRVTIIILKINGRWIMTHVHVK	1.32
SKLEEDTRRAVEHFLKNIHTGDEHELTKMLDPNVRLDFDGREYHGREEVVHYLFRIMHEFGADHSEVKHWHVQGDFMQVDTRLHVGDKFFETELYMHKINGRWYVKHIIIR	2.13
HSLEKDAHEAFELFADTVRTGDEKLMQHLIDPNVRFDYNGVDLHGWKDVSRLMIELRIEDVRLTHVHVIGNKVHLDTRIHSHVNGRRIDTEMHVDIEKVNGRWVIRRIEHR	1.47
DELHKLAEDHLEDFSRAIHTGDEDHLHHLIDPDVRYHQGDKNLHGRESWHEILERIDHVESEDVKMHRIERQGNKLIIDGEWHMRFVYNGQEKRVEMNTIVILLKVNGKWVNEAWHIR	0.463
SELEKFIRKYSDDWRELHRTGDFEIFQELADPHMIFHSIVGDKRTEIHGRESYIEWLREELEHWRIHHIQLRRSTAIGDFAVVDGELDGEFNGQRERRKVKVDLFVVNGQTKHIEFRIH	1.19
DELHEFLERVAERLVRMEHTGNEEELKKLMDPHVRLVVGDKTSVGREELLRFLEELKRKIGWTNFTVHVRRIEVQGDFFNVDMELHVNGRSLHVLIRVQIINGKLESIHWIWI	2.03
REIEEDVEKALRLWEKTMFTGDEDRFMELADPHTRVTFNGREVIGMEIWKTLVEELGIDVIKDTRIHDVKVQGNKVHVDSHRHVHFNGKTVEIRTRLIATKFDGRWHIESIRFQ	0.803
SEEEVLAHKFLRTWVESMNTGDEKSIMRLFDPNVRYHVGDKEIHGMDEHREEFTELLHRVKNVRFFFDEHDMRNIDGRIEMKGRLEIIQGEYHESTTVELIITKVNGQWVWESVFIK	0.488
SELHKFAEELSRRWFEMVLTGDEDSLNELADPNVRNDVNGRELIGRESFAKWVKELRIEDVRHKRSRIEVQGDKMIIHMDIESVVTIDGVRRDQRYEIIIISRKVNGRWLVHSVEFRVE	1.18
DEDKEALHEILRLIAEAWNTGDEHTLRRLFDPDVRVEVGDKEFHGREEVDRWFRHLRIEHVETRLHDTRSQGDKLLSDTRLHFVGEVNGVHFNRSTETDLFVHKVDGRWRIESIRVR	1.03
SEEEKLWHEIIRRILHSWDTGDEDTLNELIDPNARLIIDVNGRIIRRHGWEEMHEFIEKVRRDLGADHVHFDHINIQGNKVETDVTIEIGDKKMRSHLIIIVIDGQIHELKIIHR	1.83
DEKEHELTRMIRMIETLLRTGDFEELEKLMDPDVRLDIDGKHLVGRHDLREFFLELGVKHTDTKEIHVIGDKAFLHTEIHVDGRTTKVIIIMHKINGRWIITSTHIRHH	1.47
DEIEETIKHLMEEWETSMQTGDEDRIKELLDPHARLEIGEWEFIGRERVAHFLSRADHSEYRIRRIRMIGDKIDIRLEVRLHVNGREIRTETHLIILKINGRWFFKSTHIT	1.62
HESEEYAHRVSKDFDRAMRTGDWLRLLELIDPNARLHVGEFHVHGMEDIEKWIRHFLHRVDVIHIRVRDMRVQGEKVDVDYEIEERQGDKRRHYESRTIILKIDGKWHIKEIHIH	1.14
DEHHKILTELMRDALRYEETGDWDETSKLLDPRTRLDFNGVEVIGREAYEHLLRFLGIKVFRETDMEVQGDKIKLNGRSNFNGRETEHYIYALKVDGRWILRSVEFK	1.3
SEKEEHLHELTRLLVEWFITGDEEDNLEQADPHVRMILIVDGRIIERHGREKLYEEAHRHLKRLGIDHYRIKHVDIQGEKVKINGQLEFNGVIYDARLTFVVINGKLHQEYRSEE	1.64
DERHHRVKHWVHRFVHAWITGDERELRELLDPNVRLNFEFDGRREENVGRRDVDRFIHEILEKYKNVTIIFRDFEIVGDKFHLHTELIIGDKKHRIHIEINVINGQHEWIKIHIE	1.66
SEEEELADIALREIIETLRTGNEELLDKLVDPHVKILFDGREFIGRKDYLRLLREIRIHHVTIEDMEVQGEKVHINMRVDGEINGRRNDYKVQLIALKFNGKWIIEHEHLH	1.3
TEEKHELEKLAKIMFEIIETGDEKTWDELLDPNMRSDVNGVENIGREKVDKAILHYIKRIPNVRIQFTDMHIQGDKVIIRTEVHIGDYREELIIEVVVVNGRFKSFRLTLRRE	1.22
DDKEQRVEELARLLYKMLLTGDWKTLEHLADPHVRMHQGEYNNVGMETVVEHWRRWYEHIRLDDMKITDLKVYGNKLHTDIRLDGEVNGKHRILESELLLIVVDGKMREIEIRII	1.19

Sequence	protease stability score
SEEEEKAKKWLEEVLRAEETGDEEKLLELADPNVRWIFNGVDVIGRKHFERNIRESLEKIPNMRIEHFHLHRMETIDGRIDMETEEDGIINGRDIRTRRRIIVVKVDGRWIIKSVHLI	0.637
DEDDEVSKFVAHVLSRVFHTGDEENLQKLADPNVRLHIGDKHHIGRETFIRWLRHFLDRADHVDSDVHDVRSIDGRIWADTRLRLEINGQTIEREVIIVIHKINGRWILHRIEIR	1.49
SEEEELALRFWHELTHYRETGDEESLLKYVDPHVRLDVNGKDIHGMEEIARFLVEIRVKIETHVHDIKLINGKIHMDVRLHIEFDIDGKNVKRRHESRVIVRKVNGKWIIKTFELT	0.53
DESDKYVHHVAELMIEWFLTGDEELFEEYADPNMRVIFENHENHGREEVMKHMHDWWRKVKNVRVEYRIRDVQFQGDKARIEGELIIRIDGRNVIREVEYHILVIDGVLHSYKLVYK	1.47
DEDDEKEKFLLELLLEALKTGDWQIFEDLADPHMKFIFNGREYHGMETFSRLMEEFLKRFPNLRIRRIEIEDHHKQGNKVELDARLYSSQGNKRLNHKMILISEKINGRWLIHSLSIE	2.61
DETEEAVLSVARLWLHLFLTGDEERTQKMMDPNARVEIDGKEVVGREKVTDMIRHKIEQIRIQDHKEKDIKVIGDKVHLHVQFHGEVDGKEINTLILINVMVVDGRIKHVEIRVS	0.77
DEEEHIARHIFEHFITWLLTGDEEVLKDLADPNVRLDINGRHVVGREEFRRWLKEDLEHLRIHDMDLRRVRVQGNKMDLDVQVDGIVNGQHRHHNTRLIFEKVDGRWLLRSIIVK	2.16
SEDEEEERRVEKLWSKALHTGDEEELHRLADPNVLLNFDGVEYIGREEFLKHFRRLVHEARIEFIILKDSKLIDGRLHIHGIDLVTQGDKRIELKSEVIVLKINGRWIIHHIHIH	0.75
SEEHHHYSELMHQLTEWMLTGNFEEWARYADPNTRARIDIDGRRLEVHGREEMMRVLKEHRKLMGVDHIEVRDRHVFNGRNELIFILHQGDKERHSHITIVVINGQIKEVDIILR	1.61
DREELLMLFLKSWLTGDEHILKELLDPHVRMDVDGVEQHGRDVLLHLLHHLSRYMGVDHHRIERFEVQGDKIFINLRIHWNGVESELEIILFVIDGKIKEVEIRSRDEDHKRMVKESWR	1.19
DDDRRSLEDWIKISIESMKTGDEDEFEHLADPNPRMVVGDKHLVGRERAVHVFREWRVKHMTVKDHPIIDGRIEMDTRVTVHFNGRDIELELRIIIHKVNGKWLVEEIIIK	0.381
DEEHELLEHWLRLFEEAFSTGDWRIMARLIDPNARLEIGEKDHHGREELIKFMLRVDHIDDFRLHEKDRTEIDGRLRMNGNNEVQGTVNGQKRNITIDIHIVVVKVDGRWFVERIRIR	1.3
SEEEKDNKLAIHLTMEILRTGDEEHSKKMIDPDARHQQGDKELHGMEEVSTEIMEIWRRYKGVKFEVKRVHMQGEFIKIKVDLHVNGQTLDVIIVLYKVDGRWTIHSIHVH	1.48
DHTEHDARLVMEIWLRILLTGDWETLEKMLDPHVRLQINIGDKRHTHHGREDFLKRLYDLIRELGVDHWTLDEKRVQGNKTRARVTMYVGDKSYDVEIILVAVNGRIREVTIEIH	2.08
SEDEKIAQRLLDLLLESFITGDEQMDRELLDPNVKMEVGDKELHGREEALEWFTRVAKRVDHMRFTLTHMDIIDGRIIIQGRVEQFFNGRKVTTRYNLLVLKIDGRWRIEEIRYH	1.42
SETEKELHEFFRLWIQLFLTGDFDELKHYIDPNVRSVINGRQLIGMEEVWRWREEARIKDIEIKDVRVQGDKIEADGVLEGTINGVDRRTDTHIQLNVVNGVAKHTFIRIR	1.45
SEDEKDAEKMSERFLHMFITGNEELFRDLADPHTRLKVNGVHNHGREHVEILNKEFLTRLGVNYYEEHDVRYRVIDGVVFIDIVGHMNIDGQETEVTLHWRVLKVNGRWRITEVDIRRH	1.64
DEITRELKHIFEEVIRAILTGDWRRLHHLLDPRVRSKFEFENRHVDLHGMETVLHWMERWSQELRVEDFHLNDFRVIGDYIVLDGRVQNRQGDKKIDVRVELIVFVVNGKVTELRETSR	1.17
DEDERRDRELAEHFEHLWMTGDEETLVENLDPNARVKVGDKENHGREAFILFLREFGIDHFEFRDSKIVNGQVHIDGEIDWNGRRTRVEHIVKIVDGKVKHWEIRIK	1.52
DEIENLIVKLAMDFIKDEITGDEERLRHLADPHTRHHIGDKHFHGMELIMKHWKTMADRFDHLEVRLEHVRVQGDKVDVHGHIIEEYNGKRIEHHIRLNVEIVDGRVTRYHVKID	1.32
DEEEELLTRTSELFSHNLHTGDEDSLIHLADPHTRIDVDGVQLHGMETWSEQFSRDMHEHGARSEVHYKRREVVGDKAKIHLVLTITYNGRTIIRNIELRMTKIDGVWILRHISYH	1.26
DEDEENTRQAIDRIIRSWMTGDEKTMTELLDPRVRVEQGDKEFHGREDYTRWINEMRITHIDLRSIEKIDGRLHVHLEFDESVNGKRHRVDVELTIVKINGQWFLESVRIR	0.681
EDEKEFIERFARILLHARFTGDWKTLLELMDPNARITIEIGDKILEFHGMEQWIRENDKTEKKIKNITIHIEDMRIVNGVLEVDIHVHIGDKKYDFRIIVVVINGKVRQLEIKVE	2.08
SEETEHIQKVMKDYIELVLTGDEEKWIHLADPHTRLILLFDGKEIHTHGWDRLIKVWQRIMEELGVDKVEIRMERVRSYGDKAESDVESRYNGRTHETEVTILVIDGRIKMVEVRFH	1.14
DEEEELVIHVAHEILHNHLTGDEERWEELADPRTKVEFNGVQNHGREFTNEYRKEFHNRYDHWEIRIRDYRVIDGVAHFDTELIIRQGDKEIRVKVHLEFIIVNGKVSEIRIEVR	0.607
